Test results: paper PMC6005164, “A novel thymidylate synthase from the Vibrionales, Alteromonadales, Aeromonadales, and Pasteurellales (VAAP) clade with altered nucleotide and folate binding sites” (PeerJ, 2018)

Assays:
VpTS = molecular target: T1, VpTS (Vibrio parahaemolyticus, UniProt Q87SA0); assay: spectrophotometric dihydrofolate formation at […] nm, dose-response fit; assay type: biochemical
T1 construct: gene thyA; full-length from codon-optimized synthetic gene in pJexpress414; E. coli BL21(DE3)-SI; 35,944 Da with tag; homodimer 70 kDa
T1 sequence (Q87SA0 1-283): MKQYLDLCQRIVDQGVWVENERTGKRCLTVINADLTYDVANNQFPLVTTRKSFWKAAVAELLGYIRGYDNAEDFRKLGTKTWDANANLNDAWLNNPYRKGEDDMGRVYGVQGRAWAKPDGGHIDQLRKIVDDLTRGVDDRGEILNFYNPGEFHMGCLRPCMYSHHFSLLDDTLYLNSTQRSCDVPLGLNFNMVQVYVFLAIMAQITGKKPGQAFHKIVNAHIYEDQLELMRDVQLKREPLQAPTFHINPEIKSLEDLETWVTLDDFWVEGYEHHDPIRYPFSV

purified protein [1] = substrate: Nc1nc2c(c(=O)[nH]1)N1CN(c3ccc(C(=O)N[C@@H](CCC(=O)O)C(=O)O)cc3)C[C@H]1CN2; assay: purified protein; assay type: biochemical, Vibrio parahaemolyticus; settings: co-substrate dUMP, mTHF 0–300 µM, 50 mM Tris-HCl pH 7.5, 25 mM MgCl2, 5 mM DTT, 1 mM EDTA, 30 °C, varied: cofactor
purified protein [2] = substrate: O=c1ccn([C@H]2C[C@H](O)[C@@H](COP(=O)(O)O)O2)c(=O)[nH]1; assay: purified protein; assay type: biochemical, Vibrio parahaemolyticus; settings: co-substrate mTHF, dUMP 0–150 µM, 50 mM Tris-HCl pH 7.5, 25 mM MgCl2, 5 mM DTT, 1 mM EDTA, 30 °C
[3] = molecular target: the molecule itself; assay: SEC; Superdex 75 10/300, 1 mL/min, Tris HCl 20 mM pH 7.5, NaCl 100 mM; native molecular weight from a Kav vs. log MW plot of standards

`COc1cc(Cc2cnc(N)nc2N)cc(OC)c1OC` [trimethoprim] was tested, and the IC50 (VpTS) was 106 ± 11.4 µM.

B1: VpTS (Vibrio parahaemolyticus RIMD 2210633) (protein)
chain: T1 sequence (Q87SA0 1-283)
notes: full-length from codon-optimized synthetic gene in pJexpress414; E. coli BL21(DE3)-SI; 35,944 Da with tag; homodimer 70 kDa
B1 gave a Km (purified protein [1]) of 96.3 ± 18 µM, a kcat (purified protein [1]) of 0.3 s⁻¹ and a Km (purified protein [2]) of 27.3 ± 4.3 µM. The kcat (purified protein [2]) was 0.3 s⁻¹.

B2: recombinant thymidylate synthase from Vibrio parahaemolyticus FIM-S1708+ (enzyme, UniProt Q87SA0 1-283, looked up)
chain: T1 sequence (Q87SA0 1-283)
notes: thymidylate synthase (folate-dependent, thyA) of Vibrio parahaemolyticus strain FIM-S1708+, GenBank WP_100088861.1; codon-optimized synthetic gene in pJexpress414; theoretical mass with tag 35,944 Da; the 35 kDa band is compared with the mass that includes the 10-His tag, so the tag was probably still on the protein in the size exclusion run; also called VpTS; TS
For B2, the “stoichiometry N” value [3] was 2.
